From IntAct's records for PubMed 28380382 come the findings set out here.

Sequences and labels used below:
B1: Complex III assembly factor LYRM7 (Homo sapiens), Q5U5X0 (parent)
chain: MGRAVKVLQLFKTLHRTRQQVFKNDARALEAARIKINEEFKNNKSETSSKKIEELMKIGSDVELLLRTSVIQGIHTDHNTLKLVPRKDLLVENVPYCDAPTQKQ
partner: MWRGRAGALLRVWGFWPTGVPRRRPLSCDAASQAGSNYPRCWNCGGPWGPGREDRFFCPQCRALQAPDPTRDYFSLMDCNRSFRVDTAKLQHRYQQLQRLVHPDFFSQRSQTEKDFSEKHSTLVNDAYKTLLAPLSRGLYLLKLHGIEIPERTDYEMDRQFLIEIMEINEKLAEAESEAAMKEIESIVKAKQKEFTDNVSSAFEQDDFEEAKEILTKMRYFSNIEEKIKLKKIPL

This experiment covers variants of B1. To be noted: with hsc20_human HSCB.
Take MGRAVKVLQLFKTLHRTRQQVFKNNARALEAARIKINEEFKNNKSETSSKKIEELMKIGSDVELLLRTSVIQGIHTDHNTLKLVPRKDLLVENVPYCDAPTQKQ [D25N]: the “effect of a mutation on the interaction” value was “with no effect”.
For MGRAVKVLQAAATLHRTRQQVFKNDARALEAARIKINEEFKNNKSETSSKKIEELMKIGSDVELLLRTSVIQGIHTDHNTLKLVPRKDLLVENVPYCDAPTQKQ [L10A;F11A;K12A], the “effect of a mutation on the interaction” value is on record as “disrupting interaction strength”.
On to MGRAVKVLQLFKTLHRTRQQAAANDARALEAARIKINEEFKNNKSETSSKKIEELMKIGSDVELLLRTSVIQGIHTDHNTLKLVPRKDLLVENVPYCDAPTQKQ [V21A;F22A;K23A], for which the “effect of a mutation on the interaction” value was “with no effect”.
